The source of these data is patent US20100129369A1 (Eli Lilly, published 2010).

The target of test [1] is T1, Human c-Met-Flis-Fc ECD (human).
T1 construct: also called human c-Met extracellular domain (ECD)-Fc-Flis fusion; Human cMet-ECD-Fc-Flis
Kind of test: SPR Biacore, antibody captured, ECD-Fc analyte, 1:1 model. On the procedure: (§1) A Biacore® 2000 instrument is used to measure the binding kinetics of c-Met antibodies to human, cynomolgus monkey, and rat c-Met ECDs. Measurements are performed at 25° C. Samples are dissolved in HBS-EP buffer (150 mM sodium chloride, 3 mM EDTA, 0.005% (w/v) surfactant P-20, and 10 mM N-2-hydroxyethylpiperazine-N′-2-ethanesulfonic acid (HEPES) at pH 7.4; #BR-1001-88).
(§2) Binding is evaluated using multiple cycles. Each cycle is performed at a flow rate of 50 μL/min., and consists of the following steps: injection of about 10 μL of a c-Met antibody at 10 μg/mL aiming at a capture of 40-100 RUs, injection of 250 μL of human, cynomolgus, or rat c-Met-Flis-Fc ECD (starting at 100 nM and using two-fold serial dilutions for each cycle) followed by 20 min. for dissociation, and regeneration using about 30 μL of 10 mM glycine hydrochloride, pH 1.5. Association and dissociation rates for each cycle are evaluated using a “1:1 (Langmuir) binding” model in the BIAevaluation software, version 4.1.
(In general: SPR reads the build-up and loss of mass on a sensor chip optically.)

For test [2], the target named is T2, Cynomolgus Monkey c-Met-Flis-Fc ECD (cynomolgus monkey).
T2 construct: also called Cynomolgus Monkey cMet-ECD-Fc-Flis; cynomolgus monkey c-Met ECD
The test is described as above. As for the experimental part:
as §1, §2

The target in the next test is T3, PlexinA2-ECD-Fc (human, UniProt O75051 35-1237).
T3 construct: extracellular domain; Bought reagent
T3 sequence (looked up): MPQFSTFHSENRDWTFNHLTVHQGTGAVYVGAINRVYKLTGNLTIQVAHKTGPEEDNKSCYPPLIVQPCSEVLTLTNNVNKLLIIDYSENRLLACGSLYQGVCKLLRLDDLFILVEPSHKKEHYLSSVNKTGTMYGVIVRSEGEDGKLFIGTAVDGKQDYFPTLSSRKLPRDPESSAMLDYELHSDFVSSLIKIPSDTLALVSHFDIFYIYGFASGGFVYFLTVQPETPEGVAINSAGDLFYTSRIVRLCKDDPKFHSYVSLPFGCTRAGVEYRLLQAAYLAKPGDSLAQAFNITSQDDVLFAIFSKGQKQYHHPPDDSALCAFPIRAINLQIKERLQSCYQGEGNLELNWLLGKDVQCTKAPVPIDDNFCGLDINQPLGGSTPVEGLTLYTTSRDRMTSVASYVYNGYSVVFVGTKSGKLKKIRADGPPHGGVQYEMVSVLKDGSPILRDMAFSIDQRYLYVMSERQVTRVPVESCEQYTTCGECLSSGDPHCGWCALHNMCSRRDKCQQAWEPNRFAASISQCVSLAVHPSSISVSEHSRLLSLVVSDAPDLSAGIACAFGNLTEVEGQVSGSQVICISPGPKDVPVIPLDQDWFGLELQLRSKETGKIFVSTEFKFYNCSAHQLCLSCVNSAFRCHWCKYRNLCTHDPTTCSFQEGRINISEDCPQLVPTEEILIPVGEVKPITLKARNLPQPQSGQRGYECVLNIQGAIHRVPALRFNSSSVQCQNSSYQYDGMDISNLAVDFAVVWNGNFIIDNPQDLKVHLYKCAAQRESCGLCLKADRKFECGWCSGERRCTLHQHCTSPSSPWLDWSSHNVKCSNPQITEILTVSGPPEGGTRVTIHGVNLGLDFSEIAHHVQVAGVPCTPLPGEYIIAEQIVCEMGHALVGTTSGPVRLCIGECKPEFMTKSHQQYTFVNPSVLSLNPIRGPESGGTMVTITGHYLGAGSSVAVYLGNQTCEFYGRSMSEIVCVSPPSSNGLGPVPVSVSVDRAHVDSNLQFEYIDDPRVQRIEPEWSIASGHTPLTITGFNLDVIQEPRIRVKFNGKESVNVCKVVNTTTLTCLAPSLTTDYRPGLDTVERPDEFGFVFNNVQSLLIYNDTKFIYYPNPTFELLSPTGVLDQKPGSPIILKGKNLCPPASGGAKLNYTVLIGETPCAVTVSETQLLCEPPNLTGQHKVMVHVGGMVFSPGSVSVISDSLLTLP
Kind of test: ELISA, coated ECD-Fc, antibody 77.160 ng/mL. As for the experimental part: (§3) Wells of 96-well EIA/RIA high binding plates (Costar, #2592) are coated with 100 μL of 1 μg/mL human c-Met extracellular domain (ECD)-Fc-Flis fusion (SEQ ID NO:72), RON-ECD-Fc (R&D Systems, #1947-MS), or PlexinA2-ECD-Fc (Abnova, Taipei, Taiwan #H00005362-P01) in coating buffer (BioFX Labs, # COAT-1000-01) overnight at 4° C. […] After the plates are washed, 100 μL/well of substrate solution (BioFx, #TMBW-1000-01) are added and the plates are incubated for 10 min. at room temperature. 100 μL/well of stop solution (BioFx, # LSTP-1000-01) are added to stop the reaction. The colorimetric signals are developed and read at 450 nm using a SpectraMax 190 plate reader (Molecular Devices, Sunnyvale, Calif.). c-Met antibody binding to c-Met, RON and PlexinA2 ECDs is proportional to color signal production.
Background: In an ELISA, binding on a coated surface is turned into a signal by an enzyme label.

Test [3] has as its target T1, Human c-Met-Flis-Fc ECD. Kind of test: ELISA, coated ECD-Fc, antibody 77.160 ng/mL. On the procedure:
as §3

T2 sequence (chain, as listed by the source limits assumed): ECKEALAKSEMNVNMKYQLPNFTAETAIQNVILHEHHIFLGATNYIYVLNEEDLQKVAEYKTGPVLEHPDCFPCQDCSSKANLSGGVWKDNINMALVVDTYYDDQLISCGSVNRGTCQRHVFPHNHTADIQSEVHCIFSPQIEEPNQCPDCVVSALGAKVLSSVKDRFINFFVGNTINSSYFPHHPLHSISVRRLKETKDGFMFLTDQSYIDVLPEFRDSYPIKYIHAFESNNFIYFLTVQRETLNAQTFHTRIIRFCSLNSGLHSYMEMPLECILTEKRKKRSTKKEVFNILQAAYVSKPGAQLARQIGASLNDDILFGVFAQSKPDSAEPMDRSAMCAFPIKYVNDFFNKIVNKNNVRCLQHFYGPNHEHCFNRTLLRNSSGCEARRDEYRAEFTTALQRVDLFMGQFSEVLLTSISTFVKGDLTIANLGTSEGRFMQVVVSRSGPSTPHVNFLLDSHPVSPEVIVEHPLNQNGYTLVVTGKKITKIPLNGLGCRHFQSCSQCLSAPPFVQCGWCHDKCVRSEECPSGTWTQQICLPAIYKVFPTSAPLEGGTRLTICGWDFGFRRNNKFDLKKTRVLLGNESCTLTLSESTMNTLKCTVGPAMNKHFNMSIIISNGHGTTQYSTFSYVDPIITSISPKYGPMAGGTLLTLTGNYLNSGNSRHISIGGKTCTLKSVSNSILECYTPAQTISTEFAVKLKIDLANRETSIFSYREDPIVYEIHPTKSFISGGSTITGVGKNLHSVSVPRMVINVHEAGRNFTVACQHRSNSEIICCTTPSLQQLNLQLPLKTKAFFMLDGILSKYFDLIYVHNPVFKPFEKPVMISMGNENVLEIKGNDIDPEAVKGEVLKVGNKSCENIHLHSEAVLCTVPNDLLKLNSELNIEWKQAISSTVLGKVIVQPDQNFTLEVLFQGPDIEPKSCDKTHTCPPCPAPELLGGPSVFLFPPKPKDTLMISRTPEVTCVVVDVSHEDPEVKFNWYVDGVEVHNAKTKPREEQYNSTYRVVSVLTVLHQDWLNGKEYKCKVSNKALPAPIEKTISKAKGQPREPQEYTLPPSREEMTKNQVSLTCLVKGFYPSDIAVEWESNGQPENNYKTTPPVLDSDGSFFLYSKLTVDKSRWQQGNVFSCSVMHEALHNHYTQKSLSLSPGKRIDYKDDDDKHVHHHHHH
T1 sequence (chain, as listed by the source limits assumed): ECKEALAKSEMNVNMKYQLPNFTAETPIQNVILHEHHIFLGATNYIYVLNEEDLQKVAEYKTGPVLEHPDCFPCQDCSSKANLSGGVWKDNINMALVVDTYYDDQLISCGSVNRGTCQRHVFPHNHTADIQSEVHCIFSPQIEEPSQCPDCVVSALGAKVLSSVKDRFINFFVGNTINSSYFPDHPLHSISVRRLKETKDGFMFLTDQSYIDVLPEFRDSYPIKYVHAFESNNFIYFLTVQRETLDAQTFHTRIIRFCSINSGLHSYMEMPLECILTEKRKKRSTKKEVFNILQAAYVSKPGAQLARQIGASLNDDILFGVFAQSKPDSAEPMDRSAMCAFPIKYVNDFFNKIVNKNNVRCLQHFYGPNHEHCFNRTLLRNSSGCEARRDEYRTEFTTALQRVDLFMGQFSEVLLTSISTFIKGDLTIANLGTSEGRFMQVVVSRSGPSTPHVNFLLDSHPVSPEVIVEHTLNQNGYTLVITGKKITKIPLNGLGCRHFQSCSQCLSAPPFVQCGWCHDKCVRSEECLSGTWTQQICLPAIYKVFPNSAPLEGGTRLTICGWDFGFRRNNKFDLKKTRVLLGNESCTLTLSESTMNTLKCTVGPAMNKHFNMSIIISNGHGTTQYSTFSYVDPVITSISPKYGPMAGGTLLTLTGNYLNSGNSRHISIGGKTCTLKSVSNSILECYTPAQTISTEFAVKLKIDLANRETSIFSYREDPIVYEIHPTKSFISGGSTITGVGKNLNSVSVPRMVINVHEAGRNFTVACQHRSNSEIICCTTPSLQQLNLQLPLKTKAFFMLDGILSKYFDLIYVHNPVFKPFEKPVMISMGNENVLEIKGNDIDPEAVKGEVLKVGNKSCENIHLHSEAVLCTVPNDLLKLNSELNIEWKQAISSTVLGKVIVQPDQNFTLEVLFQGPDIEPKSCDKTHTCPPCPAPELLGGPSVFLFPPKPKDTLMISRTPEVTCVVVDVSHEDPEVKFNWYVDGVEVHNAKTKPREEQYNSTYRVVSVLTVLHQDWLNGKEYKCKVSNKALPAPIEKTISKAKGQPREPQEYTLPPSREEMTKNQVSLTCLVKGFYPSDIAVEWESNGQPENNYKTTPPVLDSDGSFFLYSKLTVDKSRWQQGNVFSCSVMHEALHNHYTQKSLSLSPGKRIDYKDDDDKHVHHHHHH

B1: C8-6 (antibody, human IgG2, kappa, V domains shown)
VH: QVQLVQSGAEVKKPGASVKVSCKASGYTFTDYYMHWVRQAPGQGLEWMGRVNPNRGGTTYNQKFEGRVTMTTDTSTSTAYMELRSLRSDDTAVYYCARTNWLDYWGQGTTVTVSS
VL: DIQMTQSPSSLSASVGDRVTITCSVSSSVSSIYLHWYQQKPGKAPKLLIYSTSNLASGVPSRFSGSGSGTDFTLTISSLQPEDFATYYCIQYSGYPLTFGGGTKVEIKR
notes: Called IgG4, kappa; also called Mab C8-6
By Kd is commonly meant the constant that tells how readily two partners part at equilibrium. A word on the koff: it is a measure of how fast the partners let go of each other. In general, kon refers to a measure of how fast the partners come together. With B1, in the test with Human c-Met-Flis-Fc ECD [1], the affinity, expressed as Kd, was 4 nM; the off-rate (koff) was 0.0003 s⁻¹; the kon is 160000 M⁻¹ s⁻¹. In test [2], this molecule came in with a Kd of 3.6 nM, a koff of 0.00045 s⁻¹ and a kon of 140000 M⁻¹ s⁻¹. Also, the “Average A450 nm” value with PlexinA2-ECD-Fc is 0.078 A450 nm. The “Average A450 nm” value with Human c-Met-Flis-Fc ECD [3] came out at 4 A450 nm.
